For the assay, the target named is Human angiotensin-converting enzyme 2 ectodomain (amino acids 20-613) with C-terminal E5 coil tag, p (human) (UniProt Q9BYF1). Briefly: SPR. (In general: Surface plasmon resonance follows binding to a sensor surface in real time, without labels.)
Chain of Human angiotensin-converting enzyme 2 ectodomain (amino acids 20-613) with C-terminal E5 coil tag, p (human) (Q9BYF1 20-613): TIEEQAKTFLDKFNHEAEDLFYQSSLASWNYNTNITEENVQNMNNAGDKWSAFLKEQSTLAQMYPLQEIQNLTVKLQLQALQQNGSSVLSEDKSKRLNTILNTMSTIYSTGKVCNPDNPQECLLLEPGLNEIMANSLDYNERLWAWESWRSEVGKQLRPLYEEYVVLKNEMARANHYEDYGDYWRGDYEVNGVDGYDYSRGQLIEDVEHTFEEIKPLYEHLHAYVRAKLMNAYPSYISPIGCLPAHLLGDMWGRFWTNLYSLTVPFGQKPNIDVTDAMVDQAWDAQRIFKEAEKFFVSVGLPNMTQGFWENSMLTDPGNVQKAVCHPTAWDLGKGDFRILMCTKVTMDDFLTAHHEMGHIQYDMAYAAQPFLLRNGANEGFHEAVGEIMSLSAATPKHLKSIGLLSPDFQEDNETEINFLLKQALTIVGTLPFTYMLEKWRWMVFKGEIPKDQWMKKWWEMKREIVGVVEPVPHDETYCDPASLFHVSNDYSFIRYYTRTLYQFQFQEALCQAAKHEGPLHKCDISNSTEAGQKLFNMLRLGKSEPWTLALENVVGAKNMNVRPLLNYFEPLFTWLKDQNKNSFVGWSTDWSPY
Substance “SARS-CoV-2 spike protein receptor binding domain (RBD 319-541), Alpha B.1.1.7 (from UniProt P0DTC2 319-541) (domain or fragment)” had a dH of -17.4 kcal/mol.

Take “SARS-CoV-2 spike protein receptor binding domain (RBD 319-541), Beta B.1.351 (from UniProt P0DTC2 319-541) (domain or fragment)”: the dH is -15.3 kcal/mol. In turn, “SARS-CoV-2 spike protein receptor binding domain (RBD 319-541), Delta B.1.617.2 (from UniProt P0DTC2 319-541) (domain or fragment)” had a dH of -10.9 kcal/mol. As to “SARS-CoV-2 spike protein receptor binding domain (RBD 319-541), Kappa B.1.617.1 (from UniProt P0DTC2 319-541) (domain or fragment)”, the dH was -9.56 kcal/mol. The figure for “SARS-CoV-2 spike protein receptor binding domain (RBD 319-541), Omicron B.1.1.529 (from UniProt P0DTC2 319-541) (domain or fragment)” is -17 kcal/mol.
